# Results reported in US20240270846A1 (published 2024).
# B1: CE115HA000 H chain altered form Q50I (antibody, human IgG1, kappa, L234A L235A, N297A, name in Kabat numbering)
# heavy: QVQLVESGGGVVQPGRSLRLSCAASGFTFSNAWMHWVRQAPGKGLEWVAIIKAKSNNYATYYAESVKGRFTISRDDSKNSLYLQMNSLKTEDTAVYYCRYVHYGAYYGVDAWGQGTTVTVSSASTKGPSVFPLAPSSKSTSGGTAALGCLVKDYFPEPVTVSWNSGALTSGVHTFPAVLQSSGLYSLSSVVTVPSSSLGTQTYICNVNHKPSNTKVDKKVEPKSCDKTHTCPPCPAPEAAGGPSVFLFPPKPKDTLMISRTPEVTCVVVDVSHEDPEVKFNWYVDGVEVHNAKTKPREEQYASTYRVVSVLTVLHQDWLNGKEYKCKVSNKALPAPIEKTISKAKGQPREPQVYTLPPSRCELTKNQVSLSCAVKGFYPSDIAVEWESNGQPENNYKTTPPVLDSDGSFFLVSKLTVDKSRWQQGNVFSCSVMHEALHNHYTQKSLSLSPDYKDDDDK
# chain: EPKSSDKTHTCPPCPAPELLGGPSVFLFPPKPKDTLMISRTPEVTCVVVDVSHEDPEVKFNWYVDGVEVHNAKTKPREEQYNSTYRVVSVLTVLHQDWLNGKEYKCKVSNKALPAPIEKTISKAKGQPREPQVCTLPPSRDELTKNQVSLWCLVKGFYPSDIAVEWESNGQPENNYKTTPPVLDSDGSFFLYSKLTVDKSRWQQGNVFSCSVMHEALHNRYTQKSLSLSP
# light: DIVMTQSPLSLPVTPGEPASISCRSSQSLVHSNRNTYLHWYQQKPGQAPRLLIYKVSNRFSGVPDRFSGSGSGTDFTLKISRVEAEDVGVYYCGQGTQVPYTFGQGTKLEIKRTVAAPSVFIFPPSDEQLKSGTASVVCLLNNFYPREAKVQWKVDNALQSGNSQESVTEQDSKDSTYSLSSTLTLSKADYEKHKVYACEVTHQGLSSPVTKSFNRGEC
# notes: one-arm antibody
# B2: CE115HA000 H chain altered form Q50S (antibody, human IgG1, kappa, L234A L235A, N297A, name in Kabat numbering)
# heavy: QVQLVESGGGVVQPGRSLRLSCAASGFTFSNAWMHWVRQAPGKGLEWVASIKAKSNNYATYYAESVKGRFTISRDDSKNSLYLQMNSLKTEDTAVYYCRYVHYGAYYGVDAWGQGTTVTVSSASTKGPSVFPLAPSSKSTSGGTAALGCLVKDYFPEPVTVSWNSGALTSGVHTFPAVLQSSGLYSLSSVVTVPSSSLGTQTYICNVNHKPSNTKVDKKVEPKSCDKTHTCPPCPAPEAAGGPSVFLFPPKPKDTLMISRTPEVTCVVVDVSHEDPEVKFNWYVDGVEVHNAKTKPREEQYASTYRVVSVLTVLHQDWLNGKEYKCKVSNKALPAPIEKTISKAKGQPREPQVYTLPPSRCELTKNQVSLSCAVKGFYPSDIAVEWESNGQPENNYKTTPPVLDSDGSFFLVSKLTVDKSRWQQGNVFSCSVMHEALHNHYTQKSLSLSPDYKDDDDK
# chain: EPKSSDKTHTCPPCPAPELLGGPSVFLFPPKPKDTLMISRTPEVTCVVVDVSHEDPEVKFNWYVDGVEVHNAKTKPREEQYNSTYRVVSVLTVLHQDWLNGKEYKCKVSNKALPAPIEKTISKAKGQPREPQVCTLPPSRDELTKNQVSLWCLVKGFYPSDIAVEWESNGQPENNYKTTPPVLDSDGSFFLYSKLTVDKSRWQQGNVFSCSVMHEALHNRYTQKSLSLSP
# light: DIVMTQSPLSLPVTPGEPASISCRSSQSLVHSNRNTYLHWYQQKPGQAPRLLIYKVSNRFSGVPDRFSGSGSGTDFTLKISRVEAEDVGVYYCGQGTQVPYTFGQGTKLEIKRTVAAPSVFIFPPSDEQLKSGTASVVCLLNNFYPREAKVQWKVDNALQSGNSQESVTEQDSKDSTYSLSSTLTLSKADYEKHKVYACEVTHQGLSSPVTKSFNRGEC
# notes: one-arm antibody
# B3: CE115HA000 H chain altered form Q50Y (antibody, human IgG1, kappa, L234A L235A, N297A, name in Kabat numbering)
# heavy: QVQLVESGGGVVQPGRSLRLSCAASGFTFSNAWMHWVRQAPGKGLEWVAYIKAKSNNYATYYAESVKGRFTISRDDSKNSLYLQMNSLKTEDTAVYYCRYVHYGAYYGVDAWGQGTTVTVSSASTKGPSVFPLAPSSKSTSGGTAALGCLVKDYFPEPVTVSWNSGALTSGVHTFPAVLQSSGLYSLSSVVTVPSSSLGTQTYICNVNHKPSNTKVDKKVEPKSCDKTHTCPPCPAPEAAGGPSVFLFPPKPKDTLMISRTPEVTCVVVDVSHEDPEVKFNWYVDGVEVHNAKTKPREEQYASTYRVVSVLTVLHQDWLNGKEYKCKVSNKALPAPIEKTISKAKGQPREPQVYTLPPSRCELTKNQVSLSCAVKGFYPSDIAVEWESNGQPENNYKTTPPVLDSDGSFFLVSKLTVDKSRWQQGNVFSCSVMHEALHNHYTQKSLSLSPDYKDDDDK
# chain: EPKSSDKTHTCPPCPAPELLGGPSVFLFPPKPKDTLMISRTPEVTCVVVDVSHEDPEVKFNWYVDGVEVHNAKTKPREEQYNSTYRVVSVLTVLHQDWLNGKEYKCKVSNKALPAPIEKTISKAKGQPREPQVCTLPPSRDELTKNQVSLWCLVKGFYPSDIAVEWESNGQPENNYKTTPPVLDSDGSFFLYSKLTVDKSRWQQGNVFSCSVMHEALHNRYTQKSLSLSP
# light: DIVMTQSPLSLPVTPGEPASISCRSSQSLVHSNRNTYLHWYQQKPGQAPRLLIYKVSNRFSGVPDRFSGSGSGTDFTLKISRVEAEDVGVYYCGQGTQVPYTFGQGTKLEIKRTVAAPSVFIFPPSDEQLKSGTASVVCLLNNFYPREAKVQWKVDNALQSGNSQESVTEQDSKDSTYSLSSTLTLSKADYEKHKVYACEVTHQGLSSPVTKSFNRGEC
# notes: one-arm antibody
# B4: CE115HA000 H chain altered form R16E (antibody, human IgG1, kappa, L234A L235A, N297A, name in Kabat numbering)
# heavy: QVQLVESGGGVVQPGESLRLSCAASGFTFSNAWMHWVRQAPGKGLEWVAQIKAKSNNYATYYAESVKGRFTISRDDSKNSLYLQMNSLKTEDTAVYYCRYVHYGAYYGVDAWGQGTTVTVSSASTKGPSVFPLAPSSKSTSGGTAALGCLVKDYFPEPVTVSWNSGALTSGVHTFPAVLQSSGLYSLSSVVTVPSSSLGTQTYICNVNHKPSNTKVDKKVEPKSCDKTHTCPPCPAPEAAGGPSVFLFPPKPKDTLMISRTPEVTCVVVDVSHEDPEVKFNWYVDGVEVHNAKTKPREEQYASTYRVVSVLTVLHQDWLNGKEYKCKVSNKALPAPIEKTISKAKGQPREPQVYTLPPSRCELTKNQVSLSCAVKGFYPSDIAVEWESNGQPENNYKTTPPVLDSDGSFFLVSKLTVDKSRWQQGNVFSCSVMHEALHNHYTQKSLSLSPDYKDDDDK
# chain: EPKSSDKTHTCPPCPAPELLGGPSVFLFPPKPKDTLMISRTPEVTCVVVDVSHEDPEVKFNWYVDGVEVHNAKTKPREEQYNSTYRVVSVLTVLHQDWLNGKEYKCKVSNKALPAPIEKTISKAKGQPREPQVCTLPPSRDELTKNQVSLWCLVKGFYPSDIAVEWESNGQPENNYKTTPPVLDSDGSFFLYSKLTVDKSRWQQGNVFSCSVMHEALHNRYTQKSLSLSP
# light: DIVMTQSPLSLPVTPGEPASISCRSSQSLVHSNRNTYLHWYQQKPGQAPRLLIYKVSNRFSGVPDRFSGSGSGTDFTLKISRVEAEDVGVYYCGQGTQVPYTFGQGTKLEIKRTVAAPSVFIFPPSDEQLKSGTASVVCLLNNFYPREAKVQWKVDNALQSGNSQESVTEQDSKDSTYSLSSTLTLSKADYEKHKVYACEVTHQGLSSPVTKSFNRGEC
# notes: one-arm antibody
# B5: CE115HA000 H chain altered form Q50K (antibody, human IgG1, kappa, L234A L235A, N297A, name in Kabat numbering)
# heavy: QVQLVESGGGVVQPGRSLRLSCAASGFTFSNAWMHWVRQAPGKGLEWVAKIKAKSNNYATYYAESVKGRFTISRDDSKNSLYLQMNSLKTEDTAVYYCRYVHYGAYYGVDAWGQGTTVTVSSASTKGPSVFPLAPSSKSTSGGTAALGCLVKDYFPEPVTVSWNSGALTSGVHTFPAVLQSSGLYSLSSVVTVPSSSLGTQTYICNVNHKPSNTKVDKKVEPKSCDKTHTCPPCPAPEAAGGPSVFLFPPKPKDTLMISRTPEVTCVVVDVSHEDPEVKFNWYVDGVEVHNAKTKPREEQYASTYRVVSVLTVLHQDWLNGKEYKCKVSNKALPAPIEKTISKAKGQPREPQVYTLPPSRCELTKNQVSLSCAVKGFYPSDIAVEWESNGQPENNYKTTPPVLDSDGSFFLVSKLTVDKSRWQQGNVFSCSVMHEALHNHYTQKSLSLSPDYKDDDDK
# chain: EPKSSDKTHTCPPCPAPELLGGPSVFLFPPKPKDTLMISRTPEVTCVVVDVSHEDPEVKFNWYVDGVEVHNAKTKPREEQYNSTYRVVSVLTVLHQDWLNGKEYKCKVSNKALPAPIEKTISKAKGQPREPQVCTLPPSRDELTKNQVSLWCLVKGFYPSDIAVEWESNGQPENNYKTTPPVLDSDGSFFLYSKLTVDKSRWQQGNVFSCSVMHEALHNRYTQKSLSLSP
# light: DIVMTQSPLSLPVTPGEPASISCRSSQSLVHSNRNTYLHWYQQKPGQAPRLLIYKVSNRFSGVPDRFSGSGSGTDFTLKISRVEAEDVGVYYCGQGTQVPYTFGQGTKLEIKRTVAAPSVFIFPPSDEQLKSGTASVVCLLNNFYPREAKVQWKVDNALQSGNSQESVTEQDSKDSTYSLSSTLTLSKADYEKHKVYACEVTHQGLSSPVTKSFNRGEC
# notes: one-arm antibody
# B6: CE115HA000 H chain altered form Q50L (antibody, human IgG1, kappa, L234A L235A, N297A, name in Kabat numbering)
# heavy: QVQLVESGGGVVQPGRSLRLSCAASGFTFSNAWMHWVRQAPGKGLEWVALIKAKSNNYATYYAESVKGRFTISRDDSKNSLYLQMNSLKTEDTAVYYCRYVHYGAYYGVDAWGQGTTVTVSSASTKGPSVFPLAPSSKSTSGGTAALGCLVKDYFPEPVTVSWNSGALTSGVHTFPAVLQSSGLYSLSSVVTVPSSSLGTQTYICNVNHKPSNTKVDKKVEPKSCDKTHTCPPCPAPEAAGGPSVFLFPPKPKDTLMISRTPEVTCVVVDVSHEDPEVKFNWYVDGVEVHNAKTKPREEQYASTYRVVSVLTVLHQDWLNGKEYKCKVSNKALPAPIEKTISKAKGQPREPQVYTLPPSRCELTKNQVSLSCAVKGFYPSDIAVEWESNGQPENNYKTTPPVLDSDGSFFLVSKLTVDKSRWQQGNVFSCSVMHEALHNHYTQKSLSLSPDYKDDDDK
# chain: EPKSSDKTHTCPPCPAPELLGGPSVFLFPPKPKDTLMISRTPEVTCVVVDVSHEDPEVKFNWYVDGVEVHNAKTKPREEQYNSTYRVVSVLTVLHQDWLNGKEYKCKVSNKALPAPIEKTISKAKGQPREPQVCTLPPSRDELTKNQVSLWCLVKGFYPSDIAVEWESNGQPENNYKTTPPVLDSDGSFFLYSKLTVDKSRWQQGNVFSCSVMHEALHNRYTQKSLSLSP
# light: DIVMTQSPLSLPVTPGEPASISCRSSQSLVHSNRNTYLHWYQQKPGQAPRLLIYKVSNRFSGVPDRFSGSGSGTDFTLKISRVEAEDVGVYYCGQGTQVPYTFGQGTKLEIKRTVAAPSVFIFPPSDEQLKSGTASVVCLLNNFYPREAKVQWKVDNALQSGNSQESVTEQDSKDSTYSLSSTLTLSKADYEKHKVYACEVTHQGLSSPVTKSFNRGEC
# notes: one-arm antibody
# Molecular target: T1, CD3 epsilon homodimer protein (UniProt P07766 23-126)
# T1 construct: also called CD3 (CD3 epsilon)
# T1 sequence (P07766 23-126): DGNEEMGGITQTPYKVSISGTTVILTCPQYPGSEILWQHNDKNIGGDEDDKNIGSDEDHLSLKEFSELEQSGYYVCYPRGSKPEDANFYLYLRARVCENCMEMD
# Experiment: SPR Biacore T200, CD3 epsilon homodimer on chip, antibody as analyte;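 also: homodimer amine-coupled to a CM4 sensor chip, run at 25 °C in HBS-EP+ buffer, with kinetic parameters derived in Biacore T200 Evaluation Software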
row,Binder,KD ratio (KD of CE115HA000 / KD of altered form)
1,B1,1.21
2,B2,47.4
3,B3,49.1
4,B4,0.74
5,B5,0.71
6,B6,1.41
